Experimental data reported in PMC5828407 (Veterinary Research, 2018).
Where no end group is shown, it is not given here. The star is where a group is joined. FITC = O=C1OC2(c3ccc(O)cc3Oc3cc(O)ccc32)c2ccc(NC(=S)*)cc21; Ahx = NCCCCCC(=O)O

Experiments:
Conditions in all cases: both partners purified
[1] = molecular target: T1, porcine aminopeptidase N (APN), His-tagged whole protein (porcine, UniProt P15145 1-963); assay: ELISA; APN protein coated on plates, incubated with FaeG peptides, fusion FaeG proteins or F4 fimbriae; absorbance at 450 nm
T1 sequence: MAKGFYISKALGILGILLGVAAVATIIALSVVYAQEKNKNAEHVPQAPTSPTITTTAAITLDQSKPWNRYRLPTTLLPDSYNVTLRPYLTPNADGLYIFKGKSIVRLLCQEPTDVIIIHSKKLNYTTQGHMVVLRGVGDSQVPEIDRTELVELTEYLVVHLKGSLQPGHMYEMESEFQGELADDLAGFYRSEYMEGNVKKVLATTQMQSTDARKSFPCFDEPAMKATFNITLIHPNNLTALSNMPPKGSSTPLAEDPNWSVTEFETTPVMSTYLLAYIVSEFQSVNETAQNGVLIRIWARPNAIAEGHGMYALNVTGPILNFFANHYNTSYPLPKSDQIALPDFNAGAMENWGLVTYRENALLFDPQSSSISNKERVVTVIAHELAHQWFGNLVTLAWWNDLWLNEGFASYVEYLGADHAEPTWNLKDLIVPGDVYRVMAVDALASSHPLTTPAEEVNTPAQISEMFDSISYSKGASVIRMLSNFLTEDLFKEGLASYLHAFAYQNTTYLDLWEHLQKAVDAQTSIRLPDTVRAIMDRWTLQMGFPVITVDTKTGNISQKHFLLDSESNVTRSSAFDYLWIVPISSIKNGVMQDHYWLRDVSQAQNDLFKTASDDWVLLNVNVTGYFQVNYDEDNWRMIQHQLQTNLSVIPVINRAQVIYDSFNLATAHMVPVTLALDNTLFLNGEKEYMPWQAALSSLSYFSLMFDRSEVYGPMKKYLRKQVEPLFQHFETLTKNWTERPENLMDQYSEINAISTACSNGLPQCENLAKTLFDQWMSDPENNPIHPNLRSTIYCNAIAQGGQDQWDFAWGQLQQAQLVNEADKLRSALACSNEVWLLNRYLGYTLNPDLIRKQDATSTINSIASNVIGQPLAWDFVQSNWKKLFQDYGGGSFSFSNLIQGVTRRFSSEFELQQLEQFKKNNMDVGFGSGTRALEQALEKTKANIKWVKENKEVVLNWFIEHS

[2] = molecular target: T1, porcine aminopeptidase N (APN), …; assay: peptide or protein array; FaeG membrane: 205 spots of 13-mers offset by 3 on cellulose membrane, incubated with 1 mg/mL purified soluble APN, blotted with polyclonal antibodies against APN; intensity > 30% of the strongest spot positive
[3] = molecular target: GST-tagged FaeG fusion protein of F4ac (Escherichia coli, UniProt P14190 22-283); assay: ELISA; indirect ELISA: APN and its five truncated proteins coated at 100 μg/mL in carbonate-bicarbonate buffer pH 9.6, incubated with 100 μg/mL FaeG fusion protein, detected with anti-F4 monoclonal antibody

{FITC-Ahx}-TKLFGSLSRNDILGQIQRV [peptide F4ac 200–218]
binding result [1]: binds

ARTELFGSLSKNDILGQIQ [FaeG membrane spots 189–191 (200–218 AA), F4ad]
binding result [2]: binds

LSSIFYGGLPRGS [FaeG membrane spot 125 (176–188 AA), F4ac]
binding result [2]: binds

NASYAGVLGRGGV [FaeG membrane spot 116 (149–161 AA), F4ac]
binding result [2]: binds

NASYAGVFGKGGV [FaeG membrane spot 50 (148–160 AA), F4ab]
binding result [2]: binds

{FITC-Ahx}-NASYAGVFGKGGV [peptide F4ab 148–160]
binding result [1]: binds

LRAIFYGGLTTTV [FaeG membrane spot 59 (175–187 AA), F4ab]
binding result [2]: binds

ASYAGALGRGGVT [FaeG membrane spot 172 (149–161 AA), F4ad]
binding result [2]: binds

B1: APN∆1 (401–963 AA) (domain or fragment)
chain: DLWLNEGFASYVEYLGADHAEPTWNLKDLIVPGDVYRVMAVDALASSHPLTTPAEEVNTPAQISEMFDSISYSKGASVIRMLSNFLTEDLFKEGLASYLHAFAYQNTTYLDLWEHLQKAVDAQTSIRLPDTVRAIMDRWTLQMGFPVITVDTKTGNISQKHFLLDSESNVTRSSAFDYLWIVPISSIKNGVMQDHYWLRDVSQAQNDLFKTASDDWVLLNVNVTGYFQVNYDEDNWRMIQHQLQTNLSVIPVINRAQVIYDSFNLATAHMVPVTLALDNTLFLNGEKEYMPWQAALSSLSYFSLMFDRSEVYGPMKKYLRKQVEPLFQHFETLTKNWTERPENLMDQYSEINAISTACSNGLPQCENLAKTLFDQWMSDPENNPIHPNLRSTIYCNAIAQGGQDQWDFAWGQLQQAQLVNEADKLRSALACSNEVWLLNRYLGYTLNPDLIRKQDATSTINSIASNVIGQPLAWDFVQSNWKKLFQDYGGGSFSFSNLIQGVTRRFSSEFELQQLEQFKKNNMDVGFGSGTRALEQALEKTKANIKWVKENKEVVLNWFIEHS
binding result [3]: binds

B2: APN∆5 (332–963 AA) (domain or fragment)
chain: PLPKSDQIALPDFNAGAMENWGLVTYRENALLFDPQSSSISNKERVVTVIAHELAHQWFGNLVTLAWWNDLWLNEGFASYVEYLGADHAEPTWNLKDLIVPGDVYRVMAVDALASSHPLTTPAEEVNTPAQISEMFDSISYSKGASVIRMLSNFLTEDLFKEGLASYLHAFAYQNTTYLDLWEHLQKAVDAQTSIRLPDTVRAIMDRWTLQMGFPVITVDTKTGNISQKHFLLDSESNVTRSSAFDYLWIVPISSIKNGVMQDHYWLRDVSQAQNDLFKTASDDWVLLNVNVTGYFQVNYDEDNWRMIQHQLQTNLSVIPVINRAQVIYDSFNLATAHMVPVTLALDNTLFLNGEKEYMPWQAALSSLSYFSLMFDRSEVYGPMKKYLRKQVEPLFQHFETLTKNWTERPENLMDQYSEINAISTACSNGLPQCENLAKTLFDQWMSDPENNPIHPNLRSTIYCNAIAQGGQDQWDFAWGQLQQAQLVNEADKLRSALACSNEVWLLNRYLGYTLNPDLIRKQDATSTINSIASNVIGQPLAWDFVQSNWKKLFQDYGGGSFSFSNLIQGVTRRFSSEFELQQLEQFKKNNMDVGFGSGTRALEQALEKTKANIKWVKENKEVVLNWFIEHS
binding result [3]: binds

HAIFYGGLPTNVK [FaeG membrane spot 181 (176–188 AA), F4ad]
binding result [2]: binds

TKLFGSLSRNDILGQIQRV [FaeG membrane spots 133–135 (200–218 AA), F4ac]
binding result [2]: binds

{FITC-Ahx}-ARTELFGSLSKNDILGQIQ [peptide F4ad 200–218]
binding result [1]: binds
